Measured values published in article doi:10.1101/2024.10.29.620886.

Tests used:
[1] = biological target: CR57 canonical diabody with a five amino acid linker 'GGGGS' between the VH and VL domains (human); test: SEC
[2] = biological target: Imdevimab diabody (human); test: SEC

For “CR57 canonical diabody with a five amino acid linker 'GGGGS' between the VH and VL domains”, the stoichiometry N [1] was 2.
Substance Imdevimab diabody has a stoichiometry N [2] of 2.
